The nanobody polyreactivity screen of Harvey et al. (2022)

Assay: yeast display, Sf9 membrane polyspecificity reagent, FACS + sequencing; frameworks hold sequencing errors
How it was run: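 Nanobodies came from a synthetic yeast display library in Saccharomyces cerevisiae BJ5465, induced with galactose for 36–48 hours and stained for 1 hour at 4 °C with 10% biotinylated, detergent-solubilized Sf9 membrane reagent. Cells were enriched on streptavidin microbeads and then FACS-sorted, with low and high (top ~1%) gates set on anti-HA fluorescence for expression and streptavidin fluorescence for reagent binding. Each polyreactivity label reflects the gate a clone came from. Genes were amplified by colony PCR, sequenced by MiSeq 2 × 250 and filtered by CDR length.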

| Sequence | polyreactivity (PSR sort gate) |
| --- | --- |
| QVQLVESGGGLVQAGGSLRLSCAASGRTFGGYAMGWYRQAPGKERELVADITSSGSTTYYADSVKGRFTISRDNSKNNVYLERYSLKPEDTAVYYCNAEGYSPVLYDYWGQGTQVTVSS | low polyreactivity |
| QVQLVESGGGLVQAGGSLRLSCAASGRTFGGYAMVWYRQAPGKERELVATITKNGGSTYYADSVKGRFTISRDNAKNTVYVQMNSLKPEVTAVYYCATGSRGYKASPQWRDYWGQGTQVTVSS | high polyreactivity |
| QVQLVESGGGLVQAGGSLRLSCAASGRTFGHNAMGRYRQAPGKEREFVAAITRRGGSTYYADSVKGRFTISRDNAKNTVYLQMNSLKPEDTAVYYCATRDYVNGPGIFNYWGQGTQVTVSS | low polyreactivity |
| QVQLVESGGGLVQAGGSLRLSCAASGRTFGINAMGWYRQAHGKERELVAVISFGDGGTYYADSVKGRFTISRDNAKNTVYLQMNSLKPEDTAVYYCATDYQSTSVWGGHFVINPYDYWGQGTQVTVSS | low polyreactivity |
| QVQLVESGGGLVQAGGSLRLSCAASGRTFGIYAMGWYRQAPGKERELVAAITGRGGSTHYADSVKGRFSISRDNAKNTVYLQMNSLKPEDTAVYYCAADYRYNRGITSNKDYDYWGQGTQVTVSS | low polyreactivity |
| QVQLVESGGGLVQAGGSLRLSCAASGRTFGKNAMGWYRQAPGKEMEFVAAITSRGGSTYYADSVKGRFTISRDNAKNTVYLQLNSLIPVDTAVYYCYGEYKRPSQRTEHYYWGQGSQVTVSS | low polyreactivity |
| QVQLVESGGGLVQAGGSLRLSCAASGRTFGKNAMGWYRQAPGKERELVAAISFSGGRTYYADSVKGRFTISRDNANNTVYLQMNSLKPEDTAVYYCAARGSRRGTWYDYWGQGTQVTVSS | high polyreactivity |
| QVQLVESGGGLVQAGGSLRLSCAASGRTFGKNAMGWYRQAPGKERELVAAISWSGGRTYYADSVKGRFTISRDNAKNTVYLQMNSVKPVDTAVYYCATASYRNPSDYWGQGTQVTVSS | high polyreactivity |
| QVQLVESGGGLVQAGGSLRLSCAASGRTFGKYAMGWYRQAPGKERELVATISRSGGSTYYADSVKGRFTISRDNAKNTVYLQMNSLKPEDTAVYYCNAVTSRYIWPPVLDRYHYWGQGTQVTVSS | high polyreactivity |
| QVQLVESGGGLVQAGGSLRLSCAASGRTFGLNVMGWYRPAPGKDRELVATISGVGSTNYADSVKGRFTISRDNAKNTVYLQMNSLKPEDTAVYYCAAGGTSGQEFGYWGQGTQVTVSS | low polyreactivity |
| QVQLVESGGGLVQAGGSLRLSCAASGRTFGLYSMGWYRQAPGKVRELVASIDWSDDN | low polyreactivity |
| QVQLVESGGGLVQAGGSLRLSCAASGRTFGNYAMGWYRQAPGKDRELVAALSTTGGRTSYADSVKGRFTISRDNAKNTVYLQMNSLKPEDTAVYYCNVYTTSQARRKRIDYDFWGQGTQVTVSS | high polyreactivity |
| QVQLVESGGGLVQAGGSLRLSCAASGRTFGNYVMGWYRQAPGKERELVAAIRSGTNTYYADSVKGRFTISRDNAKNTVYLQMNSLKPEDTAVYYCAAARYTKFDYWGQGTQVTVSS | high polyreactivity |
| QVQLVESGGGLVQAGGSLRLSCAASGRTFGPNAMGWYRQAPGKERELVAAIRYSGGSTYYADSVKGRFTISRDNAKNTVYLQMNSLKPEDTAVYYCAADYVSYVGERGTLYVRYDYWGQGTQVTVSS | high polyreactivity |
| QVQLVESGGGLVQAGGSLRLSCAASGRTFGPNAMGWYRQAPGKERELVAAISGSGGSTYYADSVKGRFTISRDNAKNTVYLQMYSLKPEDTAVYYCAARHRQQKLDYWGQGTQVTVSS | high polyreactivity |
| QVQLVESGGGLVQAGGSLRLSCAASGRTFGPYAMGWYIQAPGKERELVAAITWSSGRTYYADSVKGRFTISRDNAKNTVYLQMNSLKPEDTAVYYCNKDRFYRNNYGYGYWGQGTQVTVSS | high polyreactivity |
| QVQLVESGGGLVQAGGSLRLSCAASGRTFGPYAMGWYRQAPGKEREFVAAISYSGGSTYYADSVKGRFTISRDNAKNTVFLQMNSLKPEDTAVYYCAVDIDSNSGTRDYWGQGTQVTVSS | low polyreactivity |
| QVQLVESGGGLVQAGGSLRLSCAASGRTFGPYAMGWYRQAPGKERELVAAISRSGSSTYYADSVKGRFTISRDTGKNNVYLQMNSLKPEDTAVYDCAVARSSPEYYYWGQGTQVTVSS | high polyreactivity |
| QVQLVESGGGLVQAGGSLRLSCAASGRTFGPYVMGWYRQAPGKERELVAAISFSGGSTYYADSVKGRFTISRDNAKNTVYLQMNSLKPEDTAVYYCAARAVGGVRGYRYDYWGQGTQVTVSS | high polyreactivity |
| QVQLVESGGGLVQAGGSLRLSCAASGRTFGQNAMGWYRQAPGKERELVAAISWRGARTFYADSVKGRFTISRDNAKNTVYLQMNSLKPEDTAVYYCAARYSAYRRNVAYDYWGQGTQVTVSS | high polyreactivity |
| QVQLVESGGGLVQAGGSLRLSCAASGRTFGQNTMGWYRQAPGIERELVAAINWSGGSTYYADSVKGRFTISRDNAKNTVYLQMNSLKPEDTAVYYCAVRGYWGQGTQVTVSS | low polyreactivity |
| QVQLVESGGGLVQAGGSLRLSCAASGRTFGRNAMGWYRQAPGKEREFVAAISRRGDTTYYADSVKGRFTISRDNAKNSVYLQMNSLKPEDTAVYYCNAAVIKDRFSWYYYWGQGTQVTVSS | low polyreactivity |

| Sequence | polyreactivity (PSR sort gate) |
| --- | --- |
| QVQLVESGGGLVQAGGSLRLSCAASGRTFGRNAMGWYRQAPGKERELVAAISSDGGRTYYADSVKGRFTISRDNAKNTVYLQMNSLKPEDTAVYYCAKQRSYSDGGYWGQGTQVTVSS | low polyreactivity |
| QVQLVESGGGLVQAGGSLRLSCAASGRTFGRNAMGWYRQAPGKERELVAAISTSGSRTYYADSVKGRFTISRDNAKNTVYLQMNSLKPEDTAVYYCNAYGVSRGSYGTRGYWGQGTQVTVSS | high polyreactivity |
| QVQLVESGGGLVQAGGSLRLSCAASGRTFGRNAMGWYRQAPGKVRELVAAINSDGSTYYADSVKGRFTISRDNAKNTVYLQMNSLKPEDTAVYYCAADTWVWTDYFRRFEYWGQGTQVTVSS | high polyreactivity |
| QVQLVESGGGLVQAGGSLRLSCAASGRTFGRYAMGWYRQAPGKERELVARISFSGGSTHYADSVKGRFTISRDNAKNTVYLQMNSLKPEDTAVYYCNTDWYRNWGKPYYYWGQGTQVTVSS | high polyreactivity |
| QVQLVESGGGLVQAGGSLRLSCAASGRTFGRYTMGWYRQAPGKERELVAAITGRGGSTFYADSVKGRFTISRDNAKNTVYLQMNSLKPEDTAVYYCAARRTSIKDQFYYWGQGTQVTVSS | high polyreactivity |
| QVQLVESGGGLVQAGGSLRLSCAASGRTFGRYVMGWYRQAPGKERELVAAISKGGTSPYYADSVKGRFTISRDNAKNTVYLQMNSLKPEDTAVYYCAAGSFARYTYVPRYDYWGQGTQVTVSS | high polyreactivity |
| QVQLVESGGGLVQAGGSLRLSCAASGRTFGRYVMGWYRQAPGKERELVSAISKGGTSTYYADSVKGRFTISRDNAKNTVYLQMISLKPVVTAVYYCAAGSFARYTYVPRYDYWGQGTQVTVSS | high polyreactivity |
| QVQLVESGGGLVQAGGSLRLSCAASGRTFGSYAMGCYRPAPVKEREVVAGITWRDGSTYYADSVKGRFTISRDNAKNTDYLQMNSLKPEDTAVYYCAKEAVRYYLFGMEYWGQGTQVTVSS | low polyreactivity |
| QVQLVESGGGLVQAGGSLRLSCAASGRTFGSYAMGWYRQAPGKEREFVAAIYYGGGRTYYADSVKGRFSISRDNAKNTVYLQMNSLKAVDTAVYYCAADGVYRYNYPYLYTYDYWGQGTQVTVSS | low polyreactivity |
| QVQLVESGGGLVQAGGSLRLSCAASGRTFGSYVMGWYRQAPGKERELVAAITTSGGRTYYADSVKGRFTISRDNAKNTVYLQMNSLKPEDTAVYYCAAVQLTPTTLYRYYSWGQGTQVTVSS | high polyreactivity |
| QVQLVESGGGLVQAGGSLRLSCAASGRTFGTNAMGWYRQAPGKERELVASIDLSADSTYYADSVKGRFTISRDNAKNTVYLQMNSLKPEDTAVYYCNKDGYPWPPNLDYWGQGTQVTVSS | low polyreactivity |
| QVQLVESGGGLVQAGGSLRLSCAASGRTFGTYAMGWSRQAPGKERELVASITWSGTSTYYADSVKGRFTISRDNAKNTVYLQMNSLKPEDTAVYYCAAGWGYYRYYYWGQGTQVTVSS | high polyreactivity |
| QVQLVESGGGLVQAGGSLRLSCAASGRTFGVNAMGWYRQAPGKERELVAAINRGGSTYYADSVKGRFTISRDNAKNTVYLQMNSLKPEDTAVYYCAAYVSAVHRNSGYWGQGTQVTVSS | low polyreactivity |
| QVQLVESGGGLVQAGGSLRLSCAASGRTFGVNAMGWYRQAPGKERELVAAINWSADRTYYADSVKGRFTISRDNAKNTVYLQMNSLKPEDTAVYYCAVTQRWYWSYYGSDPSQYGYWGQGTQVTVSS | low polyreactivity |
| QVQLVESGGGLVQAGGSLRLSCAASGRTFGVYAMGWYRQAPGKERELVAAISRRAGNTYYADSVKGRFTISRDNAKNTVYLQMNSLKPEDTAVYYCAADFSRQYGYWGQGTQVTVSS | high polyreactivity |
| QVQLVESGGGLVQAGGSLRLSCAASGRTFGVYAMGWYRQAPGKERELVADITSGGGTYYADSVKGRFTILRDNAKNTVYLQMNSLKPEDTAVYYCAARKWYYAYDYWGQGTQVTVSS | high polyreactivity |
| QVQLVESGGGLVQAGGSLRLSCAASGRTFGWNVMGWYRQAPGKERELVAAISGSGGSTYYADSVKGRFTISRDNAKNTVYLQMNSLKPEDTAVYYCAALYGPGREYDYWGQGTQVTVSS | low polyreactivity |
| QVQLVESGGGLVQAGGSLRLSCAASGRTFGWTVMGWYRPAPGKDRELVAAISGSGGSTYYADSVKGRFTISRDNAKNTVYLQMNSLKPEDTAVYYCAALYGPAREYDYWGQGTQVTVSS | low polyreactivity |
| QVQLVESGGGLVQAGGSLRLSCAASGRTFGWYAMGWYRQAPGKEREFVASINTIGGSTYYADSVKGRFTISRDNAKNTVYLQMNSLKPEDTAVYYCAAVGYVIPYDSVGYTTTDYYWGQGTQVTVSS | low polyreactivity |
| QVQLVESGGGLVQAGGSLRLSCAASGRTFGWYAMGWYRQAPGKERELVAAITYPTGSTYYADSVKGRFTISRDNAKNTVYLQMNSLKPEDTAVYYCAAQGYISAGYKYDYWGQGTQVTVSS | low polyreactivity |
| QVQLVESGGGLVQAGGSLRLSCAASGRTFGWYAMGWYRQAPGKERELVASITQRGGRTYYADSVKGRFTISRDNAKNTVYLQMNSLKPEDTAVYYCAAKTSPGMYYWGQGTQVTVSS | high polyreactivity |
